# Test results from article doi:10.1101/2024.05.10.593590.
# T1: RGG1 (minimal first RGG/RG motif) (human, UniProt Q00839 702-745)
# T1 chain: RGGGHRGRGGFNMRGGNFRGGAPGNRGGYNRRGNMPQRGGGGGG
# T2: U(702-745) (human, UniProt Q00839 702-745)
# T2 chain: T1 chain
# B1: Antisense MTRNR2L6 (structured_RNA)
# RNA: GGCUACACCAUUAGGAUGUCCUGAUCCAACAUCGAGGUCGUAAACCCUAUUGUCAAUAUGGACUCUAGAAUAGGAUUGCGCUGUUAUCCCUAGGGUAACUUGUUCCGUUGAUCAAAUUAUUGGGUCAAUAUAUGUAUAG
# B2: MTRNR2L6 sense 150 nt (ssRNA)
# RNA: GUGCUAAGACUAAACAAGUUUAAGCGAAUUACUAUACAUAUAUUGACCCAAUAAUUUGAUCAACGGAACAAGUUACCCUAGGGAUAACAGCGCAAUCCUAUUCUAGAGUCCAUAUUGACAAUAGGGUUUACGACCUCGAUGUUGGAUCAG
# B3: MTRNR2L6 antisense 300 nt (ssRNA)
# RNA: GUUGUUUUAAAAAGACUUAUAGAUGGGAGGUGUGGAGGACUUAAAUACACAUGUACCAGACCUGGCUUGCUCCGGUCUGAACUCAGACCACGUAGGACUUUAAUCAUUGAACAAAUGAACCCUUGAUAGCAGCUACACCAUUAGGAUGUCCUGAUCCAACAUCGAGGUCGUAAACCCUAUUGUCAAUAUGGACUCUAGAAUAGGAUUGCGCUGUUAUCCCUAGGGUAACUUGUUCCGUUGAUCAAAUUAUUGGGUCAAUAUAUGUAUAGUAAUUCGCUUAAACUUGUUUAGUCUUAGCAC
# B4: MTRNR2L6 sense 75 nt (ssRNA)
# RNA: GUGCUAAGACUAAACAAGUUUAAGCGAAUUACUAUACAUAUAUUGACCCAAUAAUUUGAUCAACGGAACAAGUUA
# B5: MTRNR2L6 antisense 200 nt (ssRNA)
# RNA: GAAUCAUUGAACAAAUGAACCCUUGAUAGCAGCUACACCAUUAGGAUGUCCUGAUCCAACAUCGAGGUCGUAAACCCUAUUGUCAAUAUGGACUCUAGAAUAGGAUUGCGCUGUUAUCCCUAGGGUAACUUGUUCCGUUGAUCAAAUUAUUGGGUCAAUAUAUGUAUAGUAAUUCGCUUAAACUUGUUUAGUCUUAGCAC
# B6: MTRNR2L6 sense 200 nt (ssRNA)
# RNA: GUGCUAAGACUAAACAAGUUUAAGCGAAUUACUAUACAUAUAUUGACCCAAUAAUUUGAUCAACGGAACAAGUUACCCUAGGGAUAACAGCGCAAUCCUAUUCUAGAGUCCAUAUUGACAAUAGGGUUUACGACCUCGAUGUUGGAUCAGGACAUCCUAAUGGUGUAGCUGCUAUCAAGGGUUCAUUUGUUCAAUGAUUA
# B7: Antisense Syncrip (structured_RNA)
# RNA: GAAGCUCACGCCGCUGGCAGCAAACCCGAUCCAGUUCCACUCGCCUCCGAGCGCGCUCCCGGUGCGCGCGCGCGCCCCCGCGUGACCCCCCCUUCCCUUCCCUUCCCUUCCCUCCCCUCCCUC
# B8: MTRNR2L6 (structured_RNA)
# RNA: GCUAUACAUAUAUUGACCCAAUAAUUUGAUCAACGGAACAAGUUACCCUAGGGAUAACAGCGCAAUCCUAUUCUAGAGUCCAUAUUGACAAUAGGGUUUACGACCUCGAUGUUGGAUCAGGACAUCCUAAUGGUGUAGC
# B9: MTRNR2L6 antisense 250 nt (ssRNA)
# RNA: GUGUACCAGACCUGGCUUGCUCCGGUCUGAACUCAGACCACGUAGGACUUUAAUCAUUGAACAAAUGAACCCUUGAUAGCAGCUACACCAUUAGGAUGUCCUGAUCCAACAUCGAGGUCGUAAACCCUAUUGUCAAUAUGGACUCUAGAAUAGGAUUGCGCUGUUAUCCCUAGGGUAACUUGUUCCGUUGAUCAAAUUAUUGGGUCAAUAUAUGUAUAGUAAUUCGCUUAAACUUGUUUAGUCUUAGCAC
# B10: MTRNR2L6 antisense 75 nt (ssRNA)
# RNA: GAACUUGUUCCGUUGAUCAAAUUAUUGGGUCAAUAUAUGUAUAGUAAUUCGCUUAAACUUGUUUAGUCUUAGCAC
# B11: MTRNR2L6 antisense 150 nt (ssRNA)
# RNA: GUGAUCCAACAUCGAGGUCGUAAACCCUAUUGUCAAUAUGGACUCUAGAAUAGGAUUGCGCUGUUAUCCCUAGGGUAACUUGUUCCGUUGAUCAAAUUAUUGGGUCAAUAUAUGUAUAGUAAUUCGCUUAAACUUGUUUAGUCUUAGCAC
# B12: MTRNR2L6 sense 300 nt (ssRNA)
# RNA: GUGCUAAGACUAAACAAGUUUAAGCGAAUUACUAUACAUAUAUUGACCCAAUAAUUUGAUCAACGGAACAAGUUACCCUAGGGAUAACAGCGCAAUCCUAUUCUAGAGUCCAUAUUGACAAUAGGGUUUACGACCUCGAUGUUGGAUCAGGACAUCCUAAUGGUGUAGCUGCUAUCAAGGGUUCAUUUGUUCAAUGAUUAAAGUCCUACGUGGUCUGAGUUCAGACCGGAGCAAGCCAGGUCUGGUACAUGUGUAUUUAAGUCCUCCACACCUCCCAUCUAUAAGUCUUUUUAAAACAAA
# B13: Syncrip (structured_RNA)
# RNA: GAGGGAGGGGAGGGAAGGGAAGGGAAGGGAAGGGGGGGUCACGCGGGGGCGCGCGCGCGCACCGGGAGCGCGCUCGGAGGCGAGUGGAACUGGAUCGGGUUUGCUGCCAGCGGCGUGAGCUUC
# B14: MTRNR2L6 sense 100 nt (ssRNA)
# RNA: GUGCUAAGACUAAACAAGUUUAAGCGAAUUACUAUACAUAUAUUGACCCAAUAAUUUGAUCAACGGAACAAGUUACCCUAGGGAUAACAGCGCAAUCCUA
# B15: MTRNR2L6 antisense 100 nt (ssRNA)
# RNA: GAGGAUUGCGCUGUUAUCCCUAGGGUAACUUGUUCCGUUGAUCAAAUUAUUGGGUCAAUAUAUGUAUAGUAAUUCGCUUAAACUUGUUUAGUCUUAGCAC
# B16: MTRNR2L6 sense 250 nt (ssRNA)
# RNA: GUGCUAAGACUAAACAAGUUUAAGCGAAUUACUAUACAUAUAUUGACCCAAUAAUUUGAUCAACGGAACAAGUUACCCUAGGGAUAACAGCGCAAUCCUAUUCUAGAGUCCAUAUUGACAAUAGGGUUUACGACCUCGAUGUUGGAUCAGGACAUCCUAAUGGUGUAGCUGCUAUCAAGGGUUCAUUUGUUCAAUGAUUAAAGUCCUACGUGGUCUGAGUUCAGACCGGAGCAAGCCAGGUCUGGUACAU
# Legend:
# Assay in all cases: fluorescence anisotropy
# U(702-777) = U(702-777) (human, UniProt Q00839 702-777)
# U(702-825) = U(702-825) (human, UniProt Q00839)
# U(702-793) = U(702-793) (human, UniProt Q00839 702-793)
# U(702-809) = U(702-809) (human, UniProt Q00839 702-809)
# U-CTD (hnRNP U RBD) = U-CTD (hnRNP U RBD) (human, UniProt Q00839 673-825)
# [1] = target: T1, RGG1 (minimal first RGG/RG motif)
# U(702-745) = target: T2, U(702-745)
# U(702-761) = U(702-761) (human, UniProt Q00839 702-761)
# U(702-777), sequence (Q00839 702-777): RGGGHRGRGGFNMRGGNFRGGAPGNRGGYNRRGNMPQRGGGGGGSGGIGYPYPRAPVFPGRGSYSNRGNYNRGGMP
# U(702-809), sequence (Q00839 702-809): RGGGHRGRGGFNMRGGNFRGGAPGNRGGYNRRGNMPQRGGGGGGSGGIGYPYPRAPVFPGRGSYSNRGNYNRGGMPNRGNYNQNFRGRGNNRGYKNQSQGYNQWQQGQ
# U(702-825), sequence (Q00839 702-825): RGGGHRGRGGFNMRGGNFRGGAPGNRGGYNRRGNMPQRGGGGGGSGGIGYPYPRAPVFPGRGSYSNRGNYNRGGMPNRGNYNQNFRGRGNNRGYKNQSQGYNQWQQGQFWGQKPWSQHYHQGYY
# U-CTD (hnRNP U RBD), sequence (Q00839 673-825): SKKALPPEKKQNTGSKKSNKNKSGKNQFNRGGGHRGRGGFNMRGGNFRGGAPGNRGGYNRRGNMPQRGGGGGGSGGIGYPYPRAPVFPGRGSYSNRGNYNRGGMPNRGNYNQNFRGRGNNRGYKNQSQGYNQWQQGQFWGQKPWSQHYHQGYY
# U(702-793), sequence (Q00839 702-793): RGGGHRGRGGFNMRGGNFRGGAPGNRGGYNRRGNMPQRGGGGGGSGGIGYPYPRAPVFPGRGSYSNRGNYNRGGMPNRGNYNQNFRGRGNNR
binder,measurement,setting,value
B1,Kd,U(702-777),3.9 ± 0.9 µM
same,Kd,U(702-825),450 ± 10 nM
same,Kd,U(702-793),1200 ± 100 nM
same,Kd,U(702-809),810 ± 60 nM
B2,apparent K (half saturation),U-CTD (hnRNP U RBD),130 ± 10 nM
B3,apparent K (half saturation),U-CTD (hnRNP U RBD),110 ± 10 nM
B4,apparent K (half saturation),U-CTD (hnRNP U RBD),320 ± 30 nM
B5,apparent K (half saturation),U-CTD (hnRNP U RBD),230 ± 10 nM
B6,apparent K (half saturation),U-CTD (hnRNP U RBD),210 ± 20 nM
B7,Kd,U(702-777),14 ± 2 µM
same,Kd,U(702-825),570 ± 10 nM
same,Kd,U(702-793),3000 ± 200 nM
same,Kd,U(702-809),1600 ± 100 nM
B8,Kd,U(702-777),4.2 ± 0.5 µM
same,Kd,U(702-825),220 ± 10 nM
same,Kd,U(702-793),1100 ± 100 nM
same,Kd,U(702-809),710 ± 10 nM
GUGCUAAGACUAAACAAGUUUAAGC (ssRNA) [MTRNR2L6 sense 25 nt],apparent K (half saturation),U-CTD (hnRNP U RBD),4900 ± 700 nM
B9,apparent K (half saturation),U-CTD (hnRNP U RBD),110 ± 10 nM
GUGCUAAGACUAAACAAGUUUAAGCGAAUUACUAUACAUAUAUUGACCCA (ssRNA) [MTRNR2L6 sense 50 nt],apparent K (half saturation),U-CTD (hnRNP U RBD),1000 ± 100 nM
GCUUAAACUUGUUUAGUCUUAGCAC (ssRNA) [MTRNR2L6 antisense 25 nt],apparent K (half saturation),U-CTD (hnRNP U RBD),6000 ± 300 nM
GGGGUCAAUAUAUGUAUAGUAAUUCGCUUAAACUUGUUUAGUCUUAGCAC (ssRNA) [MTRNR2L6 antisense 50 nt],apparent K (half saturation),U-CTD (hnRNP U RBD),480 ± 40 nM
B10,apparent K (half saturation),U-CTD (hnRNP U RBD),410 ± 30 nM
GAGGGAGGGGAGGGAAGGGAAGGGAAGGGAAGGGGGGGAAACUUC (structured_RNA) [Syncrip G-quad],Kd,[1],~1000 nM
B11,apparent K (half saturation),U-CTD (hnRNP U RBD),190 ± 10 nM
B12,apparent K (half saturation),U-CTD (hnRNP U RBD),110 ± 10 nM
B13,Kd,U(702-777),0.45 ± 0.16 µM
same,Kd,U(702-825),70 ± 19 nM
same,Kd,U(702-745),910 ± 150 nM
same,Kd,U(702-793),180 ± 50 nM
same,Kd,U(702-761),1100 ± 400 nM
same,Kd,[1],~1000 nM
same,Kd,U(702-809),140 ± 50 nM
B14,apparent K (half saturation),U-CTD (hnRNP U RBD),150 ± 20 nM
B15,apparent K (half saturation),U-CTD (hnRNP U RBD),280 ± 20 nM
B16,apparent K (half saturation),U-CTD (hnRNP U RBD),100 ± 10 nM
